Paper PMC9799976

Columns and labels:
[1] = molecular target: fluorescently labelled, biotinylated, taxol-stabilised microtubules for the TIRF assays; assay: single-molecule TIRF microscopy; TIRF landing assay: MTs immobilised on the coverslip, GFP-tagged single-head dynein in motility buffer, 2 mM AMPPNP, with DCX; design: landing rate on MTs: unit not given here
[2] = molecular target: fluorescently labelled, biotinylated, taxol-stabilised microtubules for the TIRF assays; assay: single-molecule TIRF microscopy; TIRF landing assay: MTs immobilised on the coverslip, GFP-tagged single-head dynein in motility buffer, 2 mM ATP, with DCX; design: landing rate on MTs: unit not given here
[3] = molecular target: fluorescently labelled, biotinylated, taxol-stabilised microtubules for the TIRF assays; assay: single-molecule TIRF microscopy; TIRF landing assay: MTs immobilised on the coverslip, GFP-tagged single-head dynein in motility buffer, 2 mM AMPPNP, without DCX; design: landing rate on MTs: unit not given here
[4] = molecular target: fluorescently labelled, biotinylated, taxol-stabilised microtubules for the TIRF assays; assay: single-molecule TIRF microscopy; TIRF landing assay: MTs immobilised on the coverslip, GFP-tagged single-head dynein in motility buffer, 2 mM ADP and 0.05 U/µl hexokinase, with DCX; design: landing rate on MTs: unit not given here
[5] = molecular target: fluorescently labelled, biotinylated, taxol-stabilised microtubules for the TIRF assays; assay: single-molecule TIRF microscopy; TIRF landing assay: MTs immobilised on the coverslip, GFP-tagged single-head dynein in motility buffer, 2 mM ADP and 0.05 U/µl hexokinase, without DCX; design: landing rate on MTs: unit not given here
[6] = molecular target: fluorescently labelled, biotinylated, taxol-stabilised microtubules for the TIRF assays; assay: single-molecule TIRF microscopy; TIRF landing assay: MTs immobilised on the coverslip, GFP-tagged single-head dynein in motility buffer, 2 mM ATP, without DCX; design: landing rate on MTs: unit not given here
[7] = molecular target: fluorescently labelled, biotinylated, taxol-stabilised microtubules for the TIRF assays
[8] = molecular target: full-length human dynein complex (heavy chain with SNAP-tag, IC, LIC, Tctex, LC8, Robl) (human) (UniProt Q14204); assay: single-molecule TIRF microscopy; DDJ complexes assembled with equal amounts of dynein labeled with TMR and Alexa 647, without N-DCX; two-colour colocalisation of moving molecules

Chain of fluorescently labelled, biotinylated, taxol-stabilised microtubules for the TIRF assays (chain, as listed by the source, chain 1 of 2): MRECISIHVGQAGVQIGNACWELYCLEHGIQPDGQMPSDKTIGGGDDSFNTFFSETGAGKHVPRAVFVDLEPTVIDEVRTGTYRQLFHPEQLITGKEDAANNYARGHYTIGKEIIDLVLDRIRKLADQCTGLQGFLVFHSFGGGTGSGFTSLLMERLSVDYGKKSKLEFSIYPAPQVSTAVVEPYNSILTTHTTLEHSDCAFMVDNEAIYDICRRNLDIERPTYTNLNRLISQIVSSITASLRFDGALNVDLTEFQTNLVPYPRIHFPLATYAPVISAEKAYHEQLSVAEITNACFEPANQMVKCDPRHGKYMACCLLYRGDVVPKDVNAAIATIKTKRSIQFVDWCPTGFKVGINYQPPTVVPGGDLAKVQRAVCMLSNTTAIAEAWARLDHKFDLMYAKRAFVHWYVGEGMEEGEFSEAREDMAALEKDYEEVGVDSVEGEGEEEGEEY
Chain of fluorescently labelled, biotinylated, taxol-stabilised microtubules for the TIRF assays (chain, as listed by the source, chain 2 of 2): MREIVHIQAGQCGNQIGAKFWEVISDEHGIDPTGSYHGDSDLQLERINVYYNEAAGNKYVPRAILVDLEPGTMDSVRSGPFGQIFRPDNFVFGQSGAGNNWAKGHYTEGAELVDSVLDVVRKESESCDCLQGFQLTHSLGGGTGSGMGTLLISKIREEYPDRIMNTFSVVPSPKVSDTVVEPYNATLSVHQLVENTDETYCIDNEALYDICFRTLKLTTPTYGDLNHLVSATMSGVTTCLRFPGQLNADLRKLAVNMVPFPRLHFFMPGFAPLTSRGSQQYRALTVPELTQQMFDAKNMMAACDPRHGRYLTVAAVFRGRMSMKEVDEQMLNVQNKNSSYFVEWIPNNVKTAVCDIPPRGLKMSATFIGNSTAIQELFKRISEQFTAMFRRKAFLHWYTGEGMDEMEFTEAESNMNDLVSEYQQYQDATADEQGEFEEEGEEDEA

tail-truncated single-headed human dynein (amino acids 1320-4646 of DYNC1H1), N-terminal GFP, Q14204 1320-4646
dwell time on MTs (median) [1]: 1.2 s | landing rate on MTs [1]: 1.1 | dwell time on MTs (median) [2]: 1.1 s | landing rate on MTs [2]: 1.4 | dwell time on MTs (median) [3]: 1.1 s | landing rate on MTs [3]: 2.1 | dwell time on MTs (median) [4]: 1.3 s | landing rate on MTs [4]: 1.6 | dwell time on MTs (median) [5]: 1.4 s | landing rate on MTs [5]: 2.1 | dwell time on MTs (median) [6]: 1 s | landing rate on MTs [6]: 1.6 | velocity of MT gliding powered by surface-bound single-headed dynein with 10 nM DCX (without DCX: 0.59 [0.56, 0.63] µm/s) [7]: 0.55 µm/s

full-length human dynein complex (heavy chain with SNAP-tag, IC, LIC, Tctex, LC8, Robl) (from UniProt Q14204 1-4646; Q13409 1-638; O43237 1-492; P63172 1-113; P63167 1-89; Q9NP97 1-96)
fraction of colocalization of two differently labeled dyneins in moving DDJ complexes [8]: 42%
